The record followed here is patent publication US20230272055A1 (Incyte, published 2023).

In this assay the target is T1, human mutCALR on BaF3 cells stably expressing human MPL and human mutCALR (MPL-mutCALR cells) (human).
T1 construct: also called mutant calreticulin
T1 chain: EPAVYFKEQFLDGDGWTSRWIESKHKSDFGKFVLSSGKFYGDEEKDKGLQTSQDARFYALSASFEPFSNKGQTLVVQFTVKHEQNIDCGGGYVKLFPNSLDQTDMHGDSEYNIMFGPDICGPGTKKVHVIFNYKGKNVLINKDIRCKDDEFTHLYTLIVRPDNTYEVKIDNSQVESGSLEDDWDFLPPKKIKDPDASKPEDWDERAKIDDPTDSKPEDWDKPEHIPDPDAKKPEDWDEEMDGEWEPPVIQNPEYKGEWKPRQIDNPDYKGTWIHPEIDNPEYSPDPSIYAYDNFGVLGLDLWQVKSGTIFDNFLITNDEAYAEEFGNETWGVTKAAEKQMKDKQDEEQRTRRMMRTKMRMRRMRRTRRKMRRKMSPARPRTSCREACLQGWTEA
As to the kind of experiment: flow cytometry, BaF3 MPL-mutCALR cells. As for the experimental part:
On the day of the assay, cells were washed and resuspended in assay buffer. Approximately 200,000 cells/well were added to 96-well plates and stained with the indicated concentration of antibodies for 30 minutes on ice. Cells were then washed and stained with goat anti-human secondary conjugated to R-phycoerythrin (R-PE) (Jackson Immuno Research Laboratories) for 30 minutes on ice. The cells were then washed and analyzed by flow cytometry.
On the technique in general: In flow cytometry, cells or beads pass a laser one at a time.

B1: anti-mutCALR antibody clone 59 (antibody, human IgG1, lambda, N297A, V domains shown)
VH: EVQLVQSGAEVKKPGASVKVSCKVSGYTLTELSMQWVRQAPGKGLEWMGGFDPDDAETMYAEKFQGRLTVTEDTSTDTVYMELRSLTSEDTALYFCATSPGYDFFDYWGQGTLVTVSS
VL: QSALTQPASVSGSPGQSITISCTGTSSDVGGYNYVSWYQQHPGKAPKLMIYEVSNRPSGVSNRFSGSNSGNTATLTINRVEAGDEADYYCQVWDSSNDLLIFGGGTKLTVLG
For orientation: EC50 means the concentration giving half of the maximal effect. Low readings indicate a more potent agent, high ones a less potent agent. As for B1, the response was half-maximal at 7.7 ng/mL (EC50) and the “MPL-mutCALR AUC” value is 75700.

B2: anti-mutCALR antibody clone 177 (antibody, human IgG1, lambda, N297A, V domains shown)
VH: EVQLVQSGAEVKKPGASVKVSCKVSGYTLTELSMQWVRQAPGKGLEWMGGFDPDSGETMYAEKFQGRLTVTEDTSTDTVYMELSSLRSEDTAVYFCATSPGYDFFDYWGQGTLVTVSS
VL: SYVLTQPPSVSVAPGQTARITCGGSDIGDEIVHWYQQKPGQAPVLVVYDDSDRPSGIPERFSGSNSGNTATLTISRAQAGDEADYYCQVWDSSSDHLIFGGGTKLTVLG
Take B2: the EC50 was 3.4 ng/mL and the “MPL-mutCALR AUC” value was 52900.

B3: anti-mutCALR antibody clone 70 (antibody, human IgG1, lambda, N297A, V domains shown)
VH: EVQLVQSGAEVKKPGASVKVSCKVSGYTLTELSMQWVRQAPGKGLEWMGGFDPDDGETMYAEKFQGRLTVTEDTSTDTVYMELSSLRSEDTAVYFCATSPGYDFFDYWGQGTLVTVSS
VL: SYVLTQPPSVSVAPGKTARITCTGTSSDVGGYNYVSWYQQKPGQAPVLVVYEVSNRPSGIPERFSGSNSGNTATLTISRVEAGDEADYYCQVWDSSNDLLIFGGGTKLTVLG
In the case of B3, the EC50 was found to be 1.9 ng/mL and the “MPL-mutCALR AUC” value came to 84800.

B4: anti-mutCALR antibody clone 179 (antibody, human IgG1, lambda, N297A, V domains shown)
VH: EVQLVQSGAEVKKPGASVKVSCKVSGYTLTELSMQWVRQAPGKGLEWMGGFDPDDAETMYAEKFQGRLTVTEDTSTDTVYMELSSLRSEDTAVYFCATSPGYDFFDYWGQGTLVTVSS
VL: SYVLTQPPSVSVAPGQTARITCGGSDIGDEIVHWYQQKPGQAPVLVVYDDSDRPSGIPERFSGSNSGNTATLTISRAQAGDEADYYCQVWDSSSDHLIFGGGTKLTVLG
Consider B4, for which a half-maximal response (EC50) required 5.8 ng/mL and the “MPL-mutCALR AUC” value is 60200.

B5: anti-mutCALR antibody clone 178 (antibody, human IgG1, lambda, N297A, V domains shown)
VH: EVQLVQSGAEVKKPGASVKVSCKVSGYTLTELSMQWVRQAPGKGLEWMGGFDPDEGETMYAEKFQGRLTVTEDTSTDTVYMELSSLRSEDTAVYFCATSPGYDFFDYWGQGTLVTVSS
VL: SYVLTQPPSVSVAPGQTARITCGGSDIGDEIVHWYQQKPGQAPVLVVYDDSDRPSGIPERFSGSNSGNTATLTISRAQAGDEADYYCQVWDSSSDHLIFGGGTKLTVLG
Turning to B5, the EC50 worked out at 4.1 ng/mL and the “MPL-mutCALR AUC” value came out at 63600.

B6: anti-mutCALR antibody clone 62 (antibody, human IgG1, lambda, N297A, V domains shown)
VH: EVQLVQSGAEVKKPGASVKVSCKVSGYTLTELSMQWVRQAPGKGLEWMGGFDPDSGETMYAEKFQGRLTVTEDTSTDTVYMELSSLRSEDTAVYFCATSPGYDFFDYWGQGTLVTVSS
VL: QSALTQPASVSGSPGQSITISCTGTSSDVGGYNYVSWYQQHPGKAPKLMIYEVSNRPSGVSNRFSGSNSGNTATLTINRVEAGDEADYYCQVWDSSNDLLIFGGGTKLTVLG
In the case of B6, the response was half-maximal at 5.4 ng/mL (EC50) and the “MPL-mutCALR AUC” value came out at 58800.

B7: anti-mutCALR antibody clone 69 (antibody, human IgG1, lambda, N297A, V domains shown)
VH: EVQLVQSGAEVKKPGASVKVSCKVSGYTLTELSMQWVRQAPGKGLEWMGGFDPDDAETMYAEKFQGRLTVTEDTSTDTVYMELRSLTSEDTALYFCATSPGYDFFDYWGQGTLVTVSS
VL: SYVLTQPPSVSVAPGKTARITCTGTSSDVGGYNYVSWYQQKPGQAPVLVVYEVSNRPSGIPERFSGSNSGNTATLTISRVEAGDEADYYCQVWDSSNDLLIFGGGTKLTVLG
On to B7, for which the EC50 was 2.1 ng/mL and the “MPL-mutCALR AUC” value came out at 71800.

B8: anti-mutCALR antibody clone 68 (antibody, human IgG1, lambda, N297A, V domains shown)
VH: EVQLVQSGAEVKKPGASVKVSCKVSGYTLTELSMQWVRQAPGKGLEWMGGFDPDEGETMYAEKFQGRLTVTEDTSTDTVYMELRSLTSEDTALYFCATSPGYDFFDYWGQGTLVTVSS
VL: SYVLTQPPSVSVAPGKTARITCTGTSSDVGGYNYVSWYQQKPGQAPVLVVYEVSNRPSGIPERFSGSNSGNTATLTISRVEAGDEADYYCQVWDSSNDLLIFGGGTKLTVLG
For B8, the EC50 was determined as 3.3 ng/mL and the “MPL-mutCALR AUC” value came out at 68700.

B9: anti-mutCALR antibody clone 66 (antibody, human IgG1, lambda, N297A, V domains shown)
VH: EVQLVQSGAEVKKPGASVKVSCKVSGYTLTELSMQWVRQAPGKGLEWMGGFDPDAGETMYAEKFQGRLTVTEDTSTDTVYMELRSLTSEDTALYFCATSPGYDFFDYWGQGTLVTVSS
VL: SYVLTQPPSVSVAPGKTARITCTGTSSDVGGYNYVSWYQQKPGQAPVLVVYEVSNRPSGIPERFSGSNSGNTATLTISRVEAGDEADYYCQVWDSSNDLLIFGGGTKLTVLG
As for B9, the EC50 is 5.8 ng/mL and the “MPL-mutCALR AUC” value came out at 65000.

B10: anti-mutCALR antibody clone 63 (antibody, human IgG1, lambda, N297A, V domains shown)
VH: EVQLVQSGAEVKKPGASVKVSCKVSGYTLTELSMQWVRQAPGKGLEWMGGFDPDEGETMYAEKFQGRLTVTEDTSTDTVYMELSSLRSEDTAVYFCATSPGYDFFDYWGQGTLVTVSS
VL: QSALTQPASVSGSPGQSITISCTGTSSDVGGYNYVSWYQQHPGKAPKLMIYEVSNRPSGVSNRFSGSNSGNTATLTINRVEAGDEADYYCQVWDSSNDLLIFGGGTKLTVLG
Consider B10, for which a half-maximal response (EC50) required 5.5 ng/mL and the “MPL-mutCALR AUC” value worked out at 69100.

B11: anti-mutCALR antibody clone 71 (antibody, human IgG1, lambda, N297A, V domains shown)
VH: EVQLVQSGAEVKKPGASVKVSCKVSGYTLTELSMQWVRQAPGKGLEWMGGFDPDAGETMYAEKFQGRLTVTEDTSTDTVYMELSSLRSEDTAVYFCATSPGYDFFDYWGQGTLVTVSS
VL: SYVLTQPPSVSVAPGKTARITCTGTSSDVGGYNYVSWYQQKPGQAPVLVVYEVSNRPSGIPERFSGSNSGNTATLTISRVEAGDEADYYCQVWDSSNDLLIFGGGTKLTVLG
Turning to B11, the EC50 stood at 9.7 ng/mL and the “MPL-mutCALR AUC” value came out at 55900.

B12: anti-mutCALR antibody clone 65 (antibody, human IgG1, lambda, N297A, V domains shown)
VH: EVQLVQSGAEVKKPGASVKVSCKVSGYTLTELSMQWVRQAPGKGLEWMGGFDPDDGETMYAEKFQGRLTVTEDTSTDTVYMELRSLTSEDTALYFCATSPGYDFFDYWGQGTLVTVSS
VL: SYVLTQPPSVSVAPGKTARITCTGTSSDVGGYNYVSWYQQKPGQAPVLVVYEVSNRPSGIPERFSGSNSGNTATLTISRVEAGDEADYYCQVWDSSNDLLIFGGGTKLTVLG
Consider B12, for which a half-maximal response (EC50) required 5.9 ng/mL and the “MPL-mutCALR AUC” value came out at 81200.

B13: anti-mutCALR antibody clone 74 (antibody, human IgG1, lambda, N297A, V domains shown)
VH: EVQLVQSGAEVKKPGASVKVSCKVSGYTLTELSMQWVRQAPGKGLEWMGGFDPDDAETMYAEKFQGRLTVTEDTSTDTVYMELSSLRSEDTAVYFCATSPGYDFFDYWGQGTLVTVSS
VL: SYVLTQPPSVSVAPGKTARITCTGTSSDVGGYNYVSWYQQKPGQAPVLVVYEVSNRPSGIPERFSGSNSGNTATLTISRVEAGDEADYYCQVWDSSNDLLIFGGGTKLTVLG
Turning to B13, the half-maximal effective concentration (EC50) came out at 2.2 ng/mL and the “MPL-mutCALR AUC” value came out at 81800.

B14: anti-mutCALR antibody clone 72 (antibody, human IgG1, lambda, N297A, V domains shown)
VH: EVQLVQSGAEVKKPGASVKVSCKVSGYTLTELSMQWVRQAPGKGLEWMGGFDPDSGETMYAEKFQGRLTVTEDTSTDTVYMELSSLRSEDTAVYFCATSPGYDFFDYWGQGTLVTVSS
VL: SYVLTQPPSVSVAPGKTARITCTGTSSDVGGYNYVSWYQQKPGQAPVLVVYEVSNRPSGIPERFSGSNSGNTATLTISRVEAGDEADYYCQVWDSSNDLLIFGGGTKLTVLG
On to B14, for which the EC50 was determined as 3.3 ng/mL and the “MPL-mutCALR AUC” value came out at 58000.

B15: anti-mutCALR antibody clone 67 (antibody, human IgG1, lambda, N297A, V domains shown)
VH: EVQLVQSGAEVKKPGASVKVSCKVSGYTLTELSMQWVRQAPGKGLEWMGGFDPDSGETMYAEKFQGRLTVTEDTSTDTVYMELRSLTSEDTALYFCATSPGYDFFDYWGQGTLVTVSS
VL: SYVLTQPPSVSVAPGKTARITCTGTSSDVGGYNYVSWYQQKPGQAPVLVVYEVSNRPSGIPERFSGSNSGNTATLTISRVEAGDEADYYCQVWDSSNDLLIFGGGTKLTVLG
Take B15: the EC50 stood at 8.1 ng/mL and the “MPL-mutCALR AUC” value was determined as 63900.

B16: anti-mutCALR antibody clone 64 (antibody, human IgG1, lambda, N297A, V domains shown)
VH: EVQLVQSGAEVKKPGASVKVSCKVSGYTLTELSMQWVRQAPGKGLEWMGGFDPDDAETMYAEKFQGRLTVTEDTSTDTVYMELSSLRSEDTAVYFCATSPGYDFFDYWGQGTLVTVSS
VL: QSALTQPASVSGSPGQSITISCTGTSSDVGGYNYVSWYQQHPGKAPKLMIYEVSNRPSGVSNRFSGSNSGNTATLTINRVEAGDEADYYCQVWDSSNDLLIFGGGTKLTVLG
Consider B16, for which the EC50 was found to be 7.2 ng/mL and the “MPL-mutCALR AUC” value came out at 73200.

B17: anti-mutCALR antibody clone 73 (antibody, human IgG1, lambda, N297A, V domains shown)
VH: EVQLVQSGAEVKKPGASVKVSCKVSGYTLTELSMQWVRQAPGKGLEWMGGFDPDEGETMYAEKFQGRLTVTEDTSTDTVYMELSSLRSEDTAVYFCATSPGYDFFDYWGQGTLVTVSS
VL: SYVLTQPPSVSVAPGKTARITCTGTSSDVGGYNYVSWYQQKPGQAPVLVVYEVSNRPSGIPERFSGSNSGNTATLTISRVEAGDEADYYCQVWDSSNDLLIFGGGTKLTVLG
As to B17, the EC50 is 2 ng/mL and the “MPL-mutCALR AUC” value was found to be 67600.

B18: anti-mutCALR antibody clone 61 (antibody, human IgG1, lambda, N297A, V domains shown)
VH: EVQLVQSGAEVKKPGASVKVSCKVSGYTLTELSMQWVRQAPGKGLEWMGGFDPDAGETMYAEKFQGRLTVTEDTSTDTVYMELSSLRSEDTAVYFCATSPGYDFFDYWGQGTLVTVSS
VL: QSALTQPASVSGSPGQSITISCTGTSSDVGGYNYVSWYQQHPGKAPKLMIYEVSNRPSGVSNRFSGSNSGNTATLTINRVEAGDEADYYCQVWDSSNDLLIFGGGTKLTVLG
Regarding B18, the EC50 stood at 6.3 ng/mL and the “MPL-mutCALR AUC” value came to 62400.
